Test results reported in US12385058B2, “Herbicide tolerance protein, encoding gene thereof and use thereof” (Beijing Dabeinong Biotechnology Co., Ltd., priority 2018, dated 2025).
Substitutions are numbered along the chain they refer to.

B1: ALT02M1-01: nucleotide sequence SEQ ID NO: 25 encoding ALT02M1, based on soybean codon usage bias (nucleic acid)
DNA: ATGGAGACTGATAACGTGGAACTCGCCCAATCTAAGAGAAAGGTGGTGCTGGCTGAACAAGGGTCATTTTACATAGGGGGTAGGACTGTTACTGGTCCTGGCAAGTTTGATCCATCCAAACCTGTGATACCCTACAGTAACGAAGGAGCAACATTCTATATTAACCAAATGTATGTTAACTTCCAGGCCCCAGTGAGACCTAGGGGACTTCCATTGGTTTTCTGGCATGGAGGTGGCTTGACTGGTCACATCTGGGAGTCTACACCTGACGGCAGACCCGGGTTTCAAACCCTCTTCGTTCAGGATAGGCATACCGTGTACACTATTGACCAACCTGGGAGAGGAAGGGGTAACATCCCAACTTTTAACGGACCTTTCGGACAGTTGGAGGAAGAGAGTATTGTTAACACTGTGACAGCCAATTCTTCAAAGGAAGGTGCCTGGGTGAGAGATAGGCTTGGCCCTGCTCCCGGGCAATTTTTCGAGAACTCTCAGTTTCCTAGAGGCTATGAAGACAATTACTTTAAGGAGATGGGATTCAGCCCATCTATATCCAGTGATGAAATTGTTGACGCTGTTGTGAAACTCGTGACCCATATTGGTCCTTGTGTTCTGGTGACTCACTCAGCATCCGGCGTTCTTGGGATGAGAGTGGCTACACACGCAAAGAATGTTAGGGGAATTGTGGCCTATGAACCAGCTACCTCAATCTTCCCCAAGGGAAAAGTTCCAGAGATACCACCTCTCGCTGATAAGAAAAGCCAAATCTTTCCCCCATTCGAAATACAGGAGTCTTACTTTAAGAAACTTGCCAAGATTCCAATCCAATTTGTTTTCGGAGATAACATCCCCAAGAATCCAAAATCAGCATATTGGTTCCTGGACTGGTGGAGAGTGACAAGATACGCACATAGTCTCAGCCTGGAGGCCATAAACAAATTGGGGGGACAAGCTTCCCTTTTGGATCTTCCTACTGCAGGATTGAGAGGTAATACACACTTTCCCTTCACCGATAGGAACAATGTTCAGGTGGCTTCTCTCCTGTCAGACTTTCTGGGTAAACACGGTCTGGATCAAAATGAGAGCAAACTCGCCGCCGCCCTGGAATGA
modifications: the ALT02M1-01 nucleotide sequence encoding the amino acid sequence corresponding to the herbicide tolerant protein ALT02M1 and based on the soybean codon usage bias
B2: ALT02M2-01: nucleotide sequence SEQ ID NO: 29 encoding ALT02M2, based on soybean codon usage bias (nucleic acid)
DNA: B1 DNA with C419G, C420A, T424G, C425T, T426A
modifications: the ALT02M2-01 nucleotide sequence encoding the amino acid sequence corresponding to the herbicide tolerant protein ALT02M2 and based on the soybean codon usage bias
B3: ALT02M3-01: nucleotide sequence SEQ ID NO: 33 encoding ALT02M3, based on soybean codon usage bias (nucleic acid)
DNA: B1 DNA with C131G, C132A, T133G, A134C, T424G, C425T, T426A, G436C, T438A
modifications: the ALT02M3-01 nucleotide sequence encoding the amino acid sequence corresponding to the herbicide tolerant protein ALT02M3 and based on the soybean codon usage bias

Tested on: soybean plants
Test: Herbicide tolerance of transgenic soybean T1 plants (spraying, damage degree)
Format: in vivo
Settings: sprayed with tribenuron-methyl 144 g ai/ha, eight-fold field concentration
Protocol: The degree of damage caused by the herbicide was measured for each plant according to the leaf curl degree and the growth point damage degree 3 days after spraying (3 DAT), 7 days after spraying (7 DAT), 14 days after spraying (14 DAT) and 21 days after spraying (21 DAT): the case where the leaves are flat as untreated plants and the growth points are intact is defined as having a damage degree of 0%; the case where veins are locally browned, new leaves are malformed and plant growth is slow is defined as having a damage degree of 50%; and the case where veins are purple, until the whole plant is dead and the growth points are browned and dry is defined as having a damage degree of 100%. The soybean plants into which the ALT02M1-01 nucleotide sequence was introduced were of three strains in total (S1, S2 and S3), the soybean plants into which the ALT02M2-01 nucleotide sequence was introduced were of three strains in total (S4, S5 and S6), the soybean plants into which the ALT02M3-01 nucleotide sequence was introduced were of three strains in total (S7, S8 and S9), the soybean plants into which the ALT02-01 nucleotide sequence was introduced were of three strains in total (S10, S11 and S12), the control soybean plants were of two strains in total (S13 and S14), and the wild-type soybean plants were of one strain in total (CK1); and 10-15 plants were selected from each strain and tested.

Molecule	herbicide tolerance compared with soybean plants into which ALT02-01 was introduced	herbicide tolerance imparted to transgenic soybean plants
B1	significantly increased tolerance to benzenesulfonic acid	impart transgenic soybean plants with the tolerance to benzenesulfonic acid
B2	significantly increased tolerance to benzenesulfonic acid	impart transgenic soybean plants with the tolerance to benzenesulfonic acid
B3	significantly increased tolerance to benzenesulfonic acid	impart transgenic soybean plants with the tolerance to benzenesulfonic acid
